The results in this text go back to paper PMC6238537.

Holding throughout (test): solid-phase binding assay
In experiment [1] the target is recombinant integrin αvβ3, P06756;P05106. The following applies: read off a plot.
Experiment [2] addresses recombinant integrin αvβ5, P06756;P18084. The conditions noted are these: read off a plot.
Experiment [3] deals with recombinant integrin α9β1, Q13797;P05556. The conditions noted are these: parent: est. 0.11; read off a plot.
Sequence of recombinant integrin α9β1, Q13797;P05556 (chain, as listed by the source, chain 1 of 2): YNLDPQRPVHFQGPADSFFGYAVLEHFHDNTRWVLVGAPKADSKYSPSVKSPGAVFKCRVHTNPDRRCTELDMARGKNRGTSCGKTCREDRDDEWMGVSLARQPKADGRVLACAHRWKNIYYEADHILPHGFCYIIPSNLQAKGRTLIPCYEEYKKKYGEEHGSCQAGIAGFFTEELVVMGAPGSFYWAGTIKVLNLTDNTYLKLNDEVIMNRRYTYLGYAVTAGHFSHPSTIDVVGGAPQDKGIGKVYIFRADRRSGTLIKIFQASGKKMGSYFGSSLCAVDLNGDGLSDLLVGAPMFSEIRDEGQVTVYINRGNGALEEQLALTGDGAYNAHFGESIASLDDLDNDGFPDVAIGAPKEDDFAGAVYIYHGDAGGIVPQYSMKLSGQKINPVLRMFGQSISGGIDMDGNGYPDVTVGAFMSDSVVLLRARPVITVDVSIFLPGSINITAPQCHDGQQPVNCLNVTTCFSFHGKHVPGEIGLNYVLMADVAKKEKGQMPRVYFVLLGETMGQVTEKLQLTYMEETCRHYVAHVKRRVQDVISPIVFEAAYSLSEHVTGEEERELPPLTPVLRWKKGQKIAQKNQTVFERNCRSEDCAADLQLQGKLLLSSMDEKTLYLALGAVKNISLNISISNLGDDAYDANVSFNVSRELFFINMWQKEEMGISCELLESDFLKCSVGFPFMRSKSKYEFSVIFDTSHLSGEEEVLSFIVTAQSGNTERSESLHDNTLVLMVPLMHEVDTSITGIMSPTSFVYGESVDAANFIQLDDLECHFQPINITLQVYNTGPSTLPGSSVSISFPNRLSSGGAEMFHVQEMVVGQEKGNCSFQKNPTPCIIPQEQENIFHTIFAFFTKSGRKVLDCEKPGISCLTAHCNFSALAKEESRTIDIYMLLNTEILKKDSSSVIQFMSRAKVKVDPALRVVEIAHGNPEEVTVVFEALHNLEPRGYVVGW
Sequence of recombinant integrin α9β1, Q13797;P05556 (chain, as listed by the source, chain 2 of 2): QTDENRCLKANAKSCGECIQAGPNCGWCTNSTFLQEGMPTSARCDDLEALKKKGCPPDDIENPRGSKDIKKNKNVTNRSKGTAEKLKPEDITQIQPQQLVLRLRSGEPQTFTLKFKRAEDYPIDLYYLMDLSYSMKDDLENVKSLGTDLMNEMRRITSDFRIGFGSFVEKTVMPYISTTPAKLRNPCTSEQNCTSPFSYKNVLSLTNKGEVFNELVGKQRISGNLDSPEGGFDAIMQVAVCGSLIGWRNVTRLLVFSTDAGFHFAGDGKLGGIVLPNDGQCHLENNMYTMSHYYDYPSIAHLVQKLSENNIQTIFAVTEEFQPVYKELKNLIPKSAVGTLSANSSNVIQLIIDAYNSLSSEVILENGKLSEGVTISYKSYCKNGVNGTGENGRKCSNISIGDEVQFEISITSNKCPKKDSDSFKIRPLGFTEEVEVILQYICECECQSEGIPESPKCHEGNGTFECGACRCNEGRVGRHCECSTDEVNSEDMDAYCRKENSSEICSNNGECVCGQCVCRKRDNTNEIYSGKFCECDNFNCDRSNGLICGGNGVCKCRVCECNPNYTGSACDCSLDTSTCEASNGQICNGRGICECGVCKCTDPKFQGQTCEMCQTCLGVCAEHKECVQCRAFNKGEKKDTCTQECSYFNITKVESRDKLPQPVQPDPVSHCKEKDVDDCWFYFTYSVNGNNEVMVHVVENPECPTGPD

With “recombinant human laminin-511, O15230;P07942;P11047 γ1:EQ (γ1C-Glu to Gln)”, the figures for the response (absorbance at 490 nm) in experiment [1] (parent: est. 0.53), in experiment [2] (parent: est. 1.4) and in experiment [3] were 0.62, 1.6 and 0.13, respectively.

Regarding “recombinant human laminin-111 (from UniProt P25391;P07942;P11047) γ1:EQ (γ1C-Glu to Gln)”, the response (absorbance at 490 nm) in experiment [1] (parent: est. 0.15) amounted to 0.17; in experiment [2] (parent: est. 0.26) it was 0.27.
